4 molecules from patent US20110166062A1 (INDIANA UNIVERSITY RESEARCH AND TECHNOLOGY, published 2011) can be followed below.

The chains are these.
T1: GIP receptor (UniProt P48546 22-466)
T1 sequence (looked up): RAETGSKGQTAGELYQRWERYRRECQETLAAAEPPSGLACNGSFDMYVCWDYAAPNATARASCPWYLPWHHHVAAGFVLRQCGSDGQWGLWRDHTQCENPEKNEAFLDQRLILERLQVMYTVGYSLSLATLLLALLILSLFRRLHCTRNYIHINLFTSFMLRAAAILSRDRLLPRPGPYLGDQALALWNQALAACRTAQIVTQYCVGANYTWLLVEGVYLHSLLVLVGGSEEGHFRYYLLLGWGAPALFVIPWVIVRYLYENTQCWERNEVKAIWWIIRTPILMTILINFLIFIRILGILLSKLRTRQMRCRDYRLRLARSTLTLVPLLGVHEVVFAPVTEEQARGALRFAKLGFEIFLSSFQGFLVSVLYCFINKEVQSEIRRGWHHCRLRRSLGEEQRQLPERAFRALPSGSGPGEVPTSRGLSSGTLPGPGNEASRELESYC

B1: mt-156 (peptide)
peptide: YSQGTFTSDYSIYLDEQAAKEFVEWLLAGGPSSGAPPPS-NH2
modifications: lactam 20-24; N-terminus assumed
SMILES: CC[C@H](C)[C@H](NC(=O)[C@H](CO)NC(=O)[C@H](Cc1ccc(O)cc1)NC(=O)[C@H](CC(=O)O)NC(=O)[C@H](CO)NC(=O)[C@@H](NC(=O)[C@H](Cc1ccccc1)NC(=O)[C@@H](NC(=O)CNC(=O)[C@H](CCC(N)=O)NC(=O)[C@H](CO)NC(=O)[C@@H](N)Cc1ccc(O)cc1)[C@@H](C)O)[C@@H](C)O)C(=O)N[C@@H](Cc1ccc(O)cc1)C(=O)N[C@@H](CC(C)C)C(=O)N[C@@H](CC(=O)O)C(=O)N[C@@H](CCC(=O)O)C(=O)N[C@@H](CCC(N)=O)C(=O)N[C@@H](C)C(=O)N[C@@H](C)C(=O)N[C@H]1CCCCNC(=O)CC[C@@H](C(=O)N[C@@H](Cc2c[nH]c3ccccc23)C(=O)N[C@@H](CC(C)C)C(=O)N[C@@H](CC(C)C)C(=O)N[C@@H](C)C(=O)NCC(=O)NCC(=O)N2CCC[C@H]2C(=O)N[C@@H](CO)C(=O)N[C@@H](CO)C(=O)NCC(=O)N[C@@H](C)C(=O)N2CCC[C@H]2C(=O)N2CCC[C@H]2C(=O)N2CCC[C@H]2C(=O)N[C@@H](CO)C(N)=O)NC(=O)[C@H](C(C)C)NC(=O)[C@H](Cc2ccccc2)NC(=O)[C@H](CCC(=O)O)NC1=O
B2: mt-150 (peptide)
peptide: YSQGTFISDYSIYLDEQAAKEFVNWLLAGGPSSGAPPPS-NH2
modifications: lactam 16-20; N-terminus assumed
SMILES: CC[C@H](C)[C@H](NC(=O)[C@H](CO)NC(=O)[C@H](Cc1ccc(O)cc1)NC(=O)[C@H](CC(=O)O)NC(=O)[C@H](CO)NC(=O)[C@@H](NC(=O)[C@H](Cc1ccccc1)NC(=O)[C@@H](NC(=O)CNC(=O)[C@H](CCC(N)=O)NC(=O)[C@H](CO)NC(=O)[C@@H](N)Cc1ccc(O)cc1)[C@@H](C)O)[C@@H](C)CC)C(=O)N[C@@H](Cc1ccc(O)cc1)C(=O)N[C@@H](CC(C)C)C(=O)N[C@@H](CC(=O)O)C(=O)N[C@H]1CCC(=O)NCCCC[C@@H](C(=O)N[C@@H](CCC(=O)O)C(=O)N[C@@H](Cc2ccccc2)C(=O)N[C@H](C(=O)N[C@@H](CC(N)=O)C(=O)N[C@@H](Cc2c[nH]c3ccccc23)C(=O)N[C@@H](CC(C)C)C(=O)N[C@@H](CC(C)C)C(=O)N[C@@H](C)C(=O)NCC(=O)NCC(=O)N2CCC[C@H]2C(=O)N[C@@H](CO)C(=O)N[C@@H](CO)C(=O)NCC(=O)N[C@@H](C)C(=O)N2CCC[C@H]2C(=O)N2CCC[C@H]2C(=O)N2CCC[C@H]2C(=O)N[C@@H](CO)C(N)=O)C(C)C)NC(=O)[C@H](C)NC(=O)[C@H](C)NC(=O)[C@H](CCC(N)=O)NC1=O
B3: mt-152 (peptide)
peptide: Y[Aib]QGTFTSDYSIYLDEQAAKEFVNWLLAGGPSSGAPPPS-NH2
modifications: lactam 16-20; N-terminus assumed
SMILES: CC[C@H](C)[C@H](NC(=O)[C@H](CO)NC(=O)[C@H](Cc1ccc(O)cc1)NC(=O)[C@H](CC(=O)O)NC(=O)[C@H](CO)NC(=O)[C@@H](NC(=O)[C@H](Cc1ccccc1)NC(=O)[C@@H](NC(=O)CNC(=O)[C@H](CCC(N)=O)NC(=O)C(C)(C)NC(=O)[C@@H](N)Cc1ccc(O)cc1)[C@@H](C)O)[C@@H](C)O)C(=O)N[C@@H](Cc1ccc(O)cc1)C(=O)N[C@@H](CC(C)C)C(=O)N[C@@H](CC(=O)O)C(=O)N[C@H]1CCC(=O)NCCCC[C@@H](C(=O)N[C@@H](CCC(=O)O)C(=O)N[C@@H](Cc2ccccc2)C(=O)N[C@H](C(=O)N[C@@H](CC(N)=O)C(=O)N[C@@H](Cc2c[nH]c3ccccc23)C(=O)N[C@@H](CC(C)C)C(=O)N[C@@H](CC(C)C)C(=O)N[C@@H](C)C(=O)NCC(=O)NCC(=O)N2CCC[C@H]2C(=O)N[C@@H](CO)C(=O)N[C@@H](CO)C(=O)NCC(=O)N[C@@H](C)C(=O)N2CCC[C@H]2C(=O)N2CCC[C@H]2C(=O)N2CCC[C@H]2C(=O)N[C@@H](CO)C(N)=O)C(C)C)NC(=O)[C@H](C)NC(=O)[C@H](C)NC(=O)[C@H](CCC(N)=O)NC1=O
B4: mt-157 (peptide)
peptide: YSQGTFTSDYSIYLDEQAAKEFVEWLLKGGPSSGAPPPS-NH2
modifications: lactam 24-28; N-terminus assumed
SMILES: CC[C@H](C)[C@H](NC(=O)[C@H](CO)NC(=O)[C@H](Cc1ccc(O)cc1)NC(=O)[C@H](CC(=O)O)NC(=O)[C@H](CO)NC(=O)[C@@H](NC(=O)[C@H](Cc1ccccc1)NC(=O)[C@@H](NC(=O)CNC(=O)[C@H](CCC(N)=O)NC(=O)[C@H](CO)NC(=O)[C@@H](N)Cc1ccc(O)cc1)[C@@H](C)O)[C@@H](C)O)C(=O)N[C@@H](Cc1ccc(O)cc1)C(=O)N[C@@H](CC(C)C)C(=O)N[C@@H](CC(=O)O)C(=O)N[C@@H](CCC(=O)O)C(=O)N[C@@H](CCC(N)=O)C(=O)N[C@@H](C)C(=O)N[C@@H](C)C(=O)N[C@@H](CCCCN)C(=O)N[C@@H](CCC(=O)O)C(=O)N[C@@H](Cc1ccccc1)C(=O)N[C@H](C(=O)N[C@H]1CCC(=O)NCCCC[C@@H](C(=O)NCC(=O)NCC(=O)N2CCC[C@H]2C(=O)N[C@@H](CO)C(=O)N[C@@H](CO)C(=O)NCC(=O)N[C@@H](C)C(=O)N2CCC[C@H]2C(=O)N2CCC[C@H]2C(=O)N2CCC[C@H]2C(=O)N[C@@H](CO)C(N)=O)NC(=O)[C@H](CC(C)C)NC(=O)[C@H](CC(C)C)NC(=O)[C@H](Cc2c[nH]c3ccccc23)NC1=O)C(C)C

Bridges are numbered along the chain shown (N, C = ends). Where no end group is shown, it is not given here. [ ]: non-standard residue; d: D form. Aib = CC(C)(N)C(=O)O

The target of the first assay is glucagon receptor (UniProt P47871 26-477, limits assumed). Briefly: cell-based or functional assay.
glucagon receptor, sequence (P47871 26-477 limits assumed): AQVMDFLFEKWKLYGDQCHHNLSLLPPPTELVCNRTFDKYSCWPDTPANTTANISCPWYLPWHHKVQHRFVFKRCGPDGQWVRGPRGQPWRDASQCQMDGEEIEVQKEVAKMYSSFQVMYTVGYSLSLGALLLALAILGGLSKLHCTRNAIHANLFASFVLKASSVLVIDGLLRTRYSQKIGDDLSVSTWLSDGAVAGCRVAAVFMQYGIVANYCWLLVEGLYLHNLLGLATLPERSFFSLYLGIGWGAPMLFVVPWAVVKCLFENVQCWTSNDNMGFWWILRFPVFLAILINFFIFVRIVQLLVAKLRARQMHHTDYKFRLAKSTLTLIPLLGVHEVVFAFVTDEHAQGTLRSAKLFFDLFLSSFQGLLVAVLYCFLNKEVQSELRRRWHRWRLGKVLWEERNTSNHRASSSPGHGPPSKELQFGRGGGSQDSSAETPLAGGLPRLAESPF
As to B1, the “EC50” value came out at 2.96 nM and the relative activity stood at 6.1%.

B2: the “EC50” value was 0.036 nM and the relative activity came to 317%.

Turning to B3, the “EC50” value worked out at 0.293 nM and the relative activity came out at 36.5%.

For the molecule B4, the concentration for a half-maximal effect (EC50) is 2.62 nM and the relative activity came out at 6.92%.

The next assay has as its target GLP-1 receptor (UniProt P43220 24-463, limits assumed). The experiment in a line: cell-based or functional assay.
B1: a half-maximal effect (EC50) was put at 0.246 nM and the relative activity stood at 12.2%.

As to B2, a half-maximal response (EC50) required 3.47 nM and the relative activity came out at 1.09%.

Turning to B3, the half-maximal effective concentration (EC50) is 0.016 nM and the relative activity was found to be 169%.

For the molecule B4, the “EC50” value turned out to be 0.081 nM and the relative activity stood at 37%.

For another assay, the target named is T1, GIP receptor. The experiment in a line: cell-based or functional assay.
As for B1, the “EC50” value was found to be 0.919 nM and the relative activity is 4.41%.

For B2, the concentration giving a half-maximal response (EC50) was 0.232 nM and the relative activity was found to be 26.7%.

As for B3, the “EC50” value worked out at 0.087 nM and the relative activity came out at 41.2%.

Regarding B4, a half-maximal response (EC50) required 1.01 nM and the relative activity stood at 4%.
